Measurements published in patent US20120237507A1.
pEC50: −log10 of the molar value.

Biological target: c-Met on A549 cells (UniProt P08581)
Test: half-maximal binding, flow cytometry on A549 cells

UniProt P08581, sequence (P08581 25-1390 limits assumed): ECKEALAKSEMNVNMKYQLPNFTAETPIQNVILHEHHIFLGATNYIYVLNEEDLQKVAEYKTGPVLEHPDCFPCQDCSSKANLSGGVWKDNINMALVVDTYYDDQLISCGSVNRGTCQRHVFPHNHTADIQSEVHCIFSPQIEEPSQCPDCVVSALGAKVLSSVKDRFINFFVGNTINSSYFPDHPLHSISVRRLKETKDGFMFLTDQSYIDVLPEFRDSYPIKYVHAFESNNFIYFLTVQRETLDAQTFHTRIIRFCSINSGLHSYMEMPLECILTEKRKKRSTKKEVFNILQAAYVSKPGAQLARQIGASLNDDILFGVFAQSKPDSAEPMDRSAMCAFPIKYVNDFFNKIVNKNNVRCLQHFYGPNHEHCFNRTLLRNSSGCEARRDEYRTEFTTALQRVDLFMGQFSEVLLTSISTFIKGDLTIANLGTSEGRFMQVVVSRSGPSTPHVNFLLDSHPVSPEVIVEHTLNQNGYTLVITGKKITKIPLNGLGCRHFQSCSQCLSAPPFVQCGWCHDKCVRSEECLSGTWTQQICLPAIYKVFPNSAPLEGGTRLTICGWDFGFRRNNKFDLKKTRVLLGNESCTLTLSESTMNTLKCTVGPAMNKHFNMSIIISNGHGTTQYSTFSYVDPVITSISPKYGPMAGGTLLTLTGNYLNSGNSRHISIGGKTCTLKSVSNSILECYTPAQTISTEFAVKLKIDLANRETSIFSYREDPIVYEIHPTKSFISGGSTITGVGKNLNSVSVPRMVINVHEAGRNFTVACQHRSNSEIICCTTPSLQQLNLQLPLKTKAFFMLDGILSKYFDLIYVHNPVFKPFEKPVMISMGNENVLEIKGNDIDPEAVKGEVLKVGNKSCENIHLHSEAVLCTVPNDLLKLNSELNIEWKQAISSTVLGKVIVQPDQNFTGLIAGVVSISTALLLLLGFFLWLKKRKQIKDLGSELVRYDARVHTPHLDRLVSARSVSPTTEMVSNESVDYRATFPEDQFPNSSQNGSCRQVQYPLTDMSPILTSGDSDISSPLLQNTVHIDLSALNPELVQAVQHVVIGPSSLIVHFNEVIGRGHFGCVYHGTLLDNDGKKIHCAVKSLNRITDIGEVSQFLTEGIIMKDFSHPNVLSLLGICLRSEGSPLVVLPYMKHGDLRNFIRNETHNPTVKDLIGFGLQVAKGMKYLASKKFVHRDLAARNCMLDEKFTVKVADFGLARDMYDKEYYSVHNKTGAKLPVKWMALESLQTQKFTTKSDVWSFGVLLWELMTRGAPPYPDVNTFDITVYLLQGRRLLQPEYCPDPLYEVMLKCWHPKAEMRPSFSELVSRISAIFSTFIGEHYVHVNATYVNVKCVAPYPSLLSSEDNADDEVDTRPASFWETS

pEC50: 8.84
Substance: MetMAb/OA-5D5 (Genentech) (antibody)
